molecular target: viral gp41 of HIV-1 (on HIV-1 virions and HIV-1 infected cells) (HIV-1) (UniProt P04578); test: cell-based or functional assay

Substance | Cell Fusion (IC90) | HIV-infectivity (IC90)
DP107 (peptide) | 1000 nM | 1000 nM
DP178 (peptide) | 1 nM | 80 nM
M41 (maltose binding protein fused to the extracellular domain of HIV-1 gp41, residues 540-686) (from UniProt P03377 540-686) | > 50000 nM | > 16 nM
M41-P (M41 with Ile to Pro mutation at position 578) (from UniProt P03377 540-686) | 83 nM | 66 nM
M41-PΔ178 (M41Δ178 with the Ile to Pro mutation at position 578) (from UniProt P03377 540-642) | > 50000 nM | > 8000 nM

molecular target: MF-IV (MF5.1): E. coli maltose binding protein fused to RSV F protein residues 142-302 (E. coli; respiratory syncytial virus (strain A2)) (UniProt P03420); test: competitive binding assay (B50) on the MF5.1 fusion protein; reference T112

Substance | fold lower binding affinity than T112
T1091 (peptide) | 10 fold

molecular target: MF-IV (MF5.1): E. coli maltose binding protein fused to RSV F protein residues 142-302 (E. coli; respiratory syncytial virus (strain A2)) (UniProt P03420); test: competitive binding assay (B50) on the MF5.1 fusion protein (DP107 target)

Substance | binding affinity
T1091 (peptide) | 19 nM
